B1: Chimera F37233: chimera of the CYP102A1/A2/A3 seven-crossover library (protein)
chain: KQASAIPQPKTYGPLKNLPHLEKEQLSQSLWRIADELGPIFRFDFPGVSSVFVSGHNLVAEVCDEKRFDKNLGKGLQKVREFGGDGLATSWTHEPNWQKAHRILLPSFSQKAMKGYHSMMLDIAVQLIQKWARLNPNEAVDVPGDMTRLTLDTIGLCGFNYRFNSYYRDQPHPFITSMVRALDEAMNKLQRANPDDPAYDENKRQFQEDIKVMNDLVDSIIAERRANGDQDEKDLLARMLNVEDPETGEKLDDENIRFQIITFLIAGHETTSGLLSFATYFLLKHPDKLKKAYEEVDRVLTDAAPTYKQVLELTYIRMILNESLRLWPTAPAFSLYAKEDTVLGGEYPLEKGDELMVLIPQLHRDKTIWGDDVEEFRPERFENPSAIPQHAFKPFGNGQRACIGQQFALQEATMVLGLVLKHFELINHTGYELKIKEALTIKPDDFKITVKPRKTAAINVQRKEQA
modifications: Chimeric Cytochrome P450 heme group polypeptide sequence from CYP102A1 (Bacillus megaterium); CYP102A2 (Bacillus subtilis) and CYP102A3 (Bacillus subtilis)
notes: chimera of the CYP102A1/A2/A3 seven-crossover library
B2: Chimera F37202: chimera of the CYP102A1/A2/A3 seven-crossover library (protein)
chain: KQASAIPQPKTYGPLKNLPHLEKEQLSQSLWRIADELGPIFRFDFPGVSSVFVSGHNLVAEVCDEERFDKSIEGALEKVRAFSGDGLATSWTHEPNWRKAHNILMPTFSQRAMKDYHEKMVDIATQLIQKWSRLNPNEEIDVADDMTRLTLDTIGLCGFNYRFNSFYRDQPHPFITSMVRALDEAMNKLQRANPDDPAYDENKRQFQEDIKVMNDLVDRMIAERKANPDENIKDLLSLMLYAKDPVTGETLDDENIRYQIITFLIAGHETTSGLLSFAIYCLLTHPEKLKKAQEEADRVLTDDTPEYKQIQQLKYIRMVLNETLRLYPTAPAFSLYAKEDTVLGGEYPISKGQPVTVLIPKLHRDQNAWGPDAEDFRPERFEDPSSIPHHAYKPFGNGQRACIGMQFALQEATMVLGLVLKHFELINHTGYELKIKEALTIKPDDFKITVKPRKTAAINVQRKEQA
modifications: Chimeric Cytochrome P450 heme group polypeptide sequence from CYP102A1 (Bacillus megaterium); CYP102A2 (Bacillus subtilis) and CYP102A3 (Bacillus subtilis)
notes: as for B1
B3: Chimera F3748: chimera of the CYP102A1/A2/A3 seven-crossover library (protein)
chain: KQASAIPQPKTYGPLKNLPHLEKEQLSQSLWRIADELGPIFRFDFPGVSSVFVSGHNLVAEVCDEERFDKSIEGALEKVRAFSGDGLATSWTHEPNWRKAHNILMPTFSQRAMKDYHEKMVDIATQLIQKWSRLNPNEEIDVADDMTRLTLDTIGLCGFNYRFNSFYRDQPHPFITSMVRALDEAMNKLQRANPDDPAYDENKRQFQEDIKVMNDLVDRMIAERKANPDENIKDLLSLMLYAKDPVTGETLDDENIRYQIITFLIAGHETTSGLLSFATYFLLKHPDKLKKAYEEVDRVLTDAAPTYKQVLELTYIRMILNESLRLWPTAPAFSLYAKEDTVLGGEYPISKGQPVTVLIPKLHRDQNAWGPDAEDFRPERFEDPSSIPHHAYKPFGNGQRACIGMQFALQEATMVLGLVLKHFELINHTGYELKIKEALTIKPDDFKITVKPRKTAAINVQRKEQA
modifications: Chimeric Cytochrome P450 heme group polypeptide sequence from CYP102A1 (Bacillus megaterium); CYP102A2 (Bacillus subtilis) and CYP102A3 (Bacillus subtilis)
notes: as for B1
B4: A3: third parent P450 of the seven-crossover library (protein, listed as Bacillus subtilis)
chain: KQASAIPQPKTYGPLKNLPHLEKEQLSQSLWRIADELGPIFRFDFPGVSSVFVSGHNLVAEVCDEKRFDKNLGKGLQKVREFGGDGLATSWTHEPNWQKAHRILLPSFSQKAMKGYHSMMLDIATQLIQKWSRLNPNEEIDVADDMTRLTLDTIGLCGFNYRFNSFYRDSQHPFITSMLRALKEAMNQSKRLGLQDKMMVKTKLQFQKDIEVMNSLVDRMIAERKANPDENIKDLLSLMLYAKDPVTGETLDDENIRYQIITFLIAGHETTSGLLSFAIYCLLTHPEKLKKAQEEADRVLTDDTPEYKQIQQLKYIRMVLNETLRLYPTAPAFSLYAKEDTVLGGEYPISKGQPVTVLIPKLHRDQNAWGPDAEDFRPERFEDPSSIPHHAYKPFGNGQRACIGMQFALQEATMVLGLVLKHFELINHTGYELKIKEALTIKPDDFKITVKPRKTAAINVQRKEQA

Test: Library plate screen on five test substrates (4-AAP, 12-pNCA)
Type: biochemical
Settings: seven-crossover library, cell lysate, 20 mM H2O2
Description: These library plates were replicated and grown in 96 deep-well plates in 900 μL of LB media with 100 μg/ml ampicillin overnight at 30° C. and 250 rpm. 150 μL of this was then transferred to 850 μL of induction media (TB-media with final concentrations of 100 μg/ml ampicillin, 25 μg/ml thiamine, 0.5 mM δ-aminolevulinic acid and 0.6 mM IPTG). These were grown for 20-24 hours at 25° C. and 190 rpm, harvested by centrifugation at 5000×g for 8 minutes and frozen at -20° C. for at least 24 hours. Cells were resuspended using a pipetting robot (Multimek 96, Beckman) and lysed in 400 μL of Epps or Tris buffer (100 mM, pH 8.2) containing 0.8 mg/ml lysozyme and 2 units/mL DNaseI for 1 hour at 37° C. Plates were then spun for 8 minutes at 5000×g and 4° C. to pellet cell debris. 80 μL of lysate was transferred into 4 separate 96 well plates for each library plate. […] On one plate, high -throughput carbon monoxide spectroscopy was done in order to assess relative amounts of P450 (Otey, C. R. High-throughput carbon monoxide binding assay for cytochromes P450. In Directed Enzyme Evolution: Screening and Selection Methods, F. H. Arnold and […]. 137-139 (2003)) with 0.1 M sodium hydrosulfite being used in place of 0.4 M. The other three plates were used to assay activity on different substrates. Examples of assays that have been or could be used include the 4-AAP (Otey, C. R., and Joern, J. M. High-throughput screen for aromatic hydroxylation. In Directed Enzyme Evolution: Screening and Selection Methods, F. H. Arnold and […]. 141-148 (2003)), 12-pNCA (Schwaneberg et al., Anal. Biochem., 269:359-366 (1999), NBP assay ([…], et al., J Biomol Screen, 9:141-146 (2004)), 7-ethoxyresorufin (Sieber et al., Nat Biotechnol., 19:456-460 (2001)), vivid substrate assays (Marks et al., Assay Drug Dev Technol 1, 73-81 (2002); Marks et al., AAPS PharmSci 5, E18 (2003)), and purpald assays (Peters et al., J Am Chem Soc 125:13442-13450 (2003)). Since the heme domains were being used, the hydrogen peroxide was used to drive the reactions via the peroxide shunt (Cirino, P. C., and Arnold, F. H., Advanced Synthesis & Catalysis 344, 932-937 (2002)). The 4-AAP assay detects phenol-like compounds and consists of the addition of 40 μL of a 3.5× substrate solution (containing substrate concentrations dependent for each substrate) to 80 μL of lysate. […] Then a 7×(140 mM) H2O2 hydrogen peroxide solution was added resulting in a final concentration of 20 mM hydrogen peroxide. The reaction was mixed and left at room temperature without shaking for two hours and then quenched with 140 μL of 0.1 m NaOH and 4 M Urea. 38 μL of 0.6% 4-aminoantipyrine was added followed by blanking of the 96-well plate reader at 500 nm. 38 μL of 0.6% potassium persulfate was added and after 20 minutes the A500 was read. […]

Molecule	activity on test substrates incl. novel substrates (diphenyl ether, allyloxy-benzene)
B1	activity that is novel
B2	activity that is novel
B3	activity that is novel
B4	no activity towards any of the substrates tested

Reference: patent US8603949B2, “Libraries of optimized cytochrome P450 enzymes and the optimized P450 enzymes” (California Institute of Technology, priority 2003, dated 2013)
